Data from PMC2756588.

T1: Cyk3, Q07533
T1 sequence (Q07533 1-83, looked up): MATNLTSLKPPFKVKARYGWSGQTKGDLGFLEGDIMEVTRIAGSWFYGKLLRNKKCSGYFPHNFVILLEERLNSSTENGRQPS

T2: Fus1, P11710
T2 sequence (P11710 432-512, looked up): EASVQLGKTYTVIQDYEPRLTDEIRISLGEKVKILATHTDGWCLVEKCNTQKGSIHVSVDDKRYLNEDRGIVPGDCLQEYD

T3: Sla1-2, P32790
T3 sequence (P32790 60-140, looked up): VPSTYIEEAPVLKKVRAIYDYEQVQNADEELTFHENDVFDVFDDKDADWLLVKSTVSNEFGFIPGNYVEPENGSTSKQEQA

T4: Nbp2, Q12163
T4 sequence (Q12163 103-180, looked up): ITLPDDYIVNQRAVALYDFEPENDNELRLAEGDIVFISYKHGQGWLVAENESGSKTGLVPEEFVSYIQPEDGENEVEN

T5: Cdc25, P04821
T5 sequence (P04821 50-136, looked up): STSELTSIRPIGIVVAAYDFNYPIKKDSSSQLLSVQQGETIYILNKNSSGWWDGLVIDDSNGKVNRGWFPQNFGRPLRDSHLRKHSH

T6: Boi1, P38041
T6 sequence (P38041 1-86, looked up): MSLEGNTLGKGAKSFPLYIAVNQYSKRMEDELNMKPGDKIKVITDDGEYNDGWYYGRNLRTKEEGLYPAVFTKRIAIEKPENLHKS

T7: Boi2, P39969
T7 sequence (P39969 32-116, looked up): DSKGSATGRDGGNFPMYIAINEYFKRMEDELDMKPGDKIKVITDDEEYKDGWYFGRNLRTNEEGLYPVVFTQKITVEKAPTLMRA

T8: Pex13, P80667
T8 sequence (P80667 295-386, looked up): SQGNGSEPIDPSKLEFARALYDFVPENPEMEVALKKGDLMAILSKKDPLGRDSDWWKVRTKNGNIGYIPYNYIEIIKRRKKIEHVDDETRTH

T9: Bud14, P27637
T9 sequence (P27637 247-328, looked up): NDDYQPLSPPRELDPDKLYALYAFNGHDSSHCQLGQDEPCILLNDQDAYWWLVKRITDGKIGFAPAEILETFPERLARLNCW

T10: Hse1, P38753
T10 sequence (P38753 208-285, looked up): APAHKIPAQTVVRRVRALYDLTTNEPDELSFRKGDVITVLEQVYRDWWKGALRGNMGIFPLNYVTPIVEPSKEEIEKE

T11: Sla1-3, P32790
T11 sequence (P32790 344-424, looked up): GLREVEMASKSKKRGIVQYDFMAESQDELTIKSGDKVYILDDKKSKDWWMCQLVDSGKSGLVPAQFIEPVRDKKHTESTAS

T12: Myo5, Q04439
T12 sequence (Q04439 1072-1160, looked up): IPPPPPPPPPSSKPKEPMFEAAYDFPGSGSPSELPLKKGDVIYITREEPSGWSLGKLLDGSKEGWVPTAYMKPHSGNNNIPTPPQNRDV

T13: Abp1, P15891
T13 sequence (P15891 535-592, looked up): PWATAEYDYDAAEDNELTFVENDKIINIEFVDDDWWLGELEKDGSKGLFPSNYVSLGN

T14: Bzz1-1, P38822
T14 sequence (P38822 478-572, looked up): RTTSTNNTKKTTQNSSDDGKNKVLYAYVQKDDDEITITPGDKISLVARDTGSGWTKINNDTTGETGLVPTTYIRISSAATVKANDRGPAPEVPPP

T15: Lsb3, P43603
T15 sequence (P43603 385-451, looked up): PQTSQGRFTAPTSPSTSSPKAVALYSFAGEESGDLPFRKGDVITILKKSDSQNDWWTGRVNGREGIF

T16: Pin3, Q06449
T16 sequence (Q06449 53-122, looked up): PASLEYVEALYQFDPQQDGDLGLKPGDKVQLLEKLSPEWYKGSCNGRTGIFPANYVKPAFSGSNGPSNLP

T17: Lsb1, P53281
T17 sequence (P53281 45-122, looked up): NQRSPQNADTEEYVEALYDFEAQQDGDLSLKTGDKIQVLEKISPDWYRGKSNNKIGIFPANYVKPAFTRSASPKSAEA

T18: Lsb4, P32793
T18 sequence (P32793 402-468, looked up): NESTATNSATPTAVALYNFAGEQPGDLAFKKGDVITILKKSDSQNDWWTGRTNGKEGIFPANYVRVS

T19: Bzz1-2, P38822
T19 sequence (P38822 568-633, looked up): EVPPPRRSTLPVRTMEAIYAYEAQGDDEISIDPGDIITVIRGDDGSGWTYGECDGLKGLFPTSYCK

T20: Hof1, Q05080
T20 sequence (Q05080 590-669, looked up): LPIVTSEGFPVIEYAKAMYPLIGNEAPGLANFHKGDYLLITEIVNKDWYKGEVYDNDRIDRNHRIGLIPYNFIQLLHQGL

T21: Bbc1, P47068
T21 sequence (P47068 1-78, looked up): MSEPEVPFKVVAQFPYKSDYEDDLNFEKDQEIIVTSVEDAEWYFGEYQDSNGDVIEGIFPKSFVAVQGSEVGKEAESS


Molecular target: T1, Cyk3, Q07533
Test: SPOT array
Settings: median of control spots 1451

Row | SPOT intensity | Binder
1 | 10 | KKIRLIFTYPSTVGR
2 | 1 | MKRSRPSRSIPYTTP
3 | 0 | RSKRLFPVRPMATAH

Molecular target: T2, Fus1, P11710
Test: SPOT array
Settings: median of control spots 1200

Row | SPOT intensity | Binder
4 | 73 | KKIRLIFTYPSTVGR
5 | 5 | MKRSRPSRSIPYTTP
6 | 17 | RSKRLFPVRPMATAH

Molecular target: T3, Sla1-2, P32790
Test: SPOT array
Settings: median of control spots 712

Row | SPOT intensity | Binder
7 | 6 | KKIRLIFTYPSTVGR
8 | 6 | MKRSRPSRSIPYTTP
9 | 0 | RSKRLFPVRPMATAH

Molecular target: Bem1-2, P29366
Sequence (P29366 139-227): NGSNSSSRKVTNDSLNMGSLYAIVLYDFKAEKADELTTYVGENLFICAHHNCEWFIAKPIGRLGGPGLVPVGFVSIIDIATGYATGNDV
Test: SPOT array
Settings: median of control spots 4347

Row | SPOT intensity | Binder
10 | 0 | KKIRLIFTYPSTVGR
11 | 39 | MKRSRPSRSIPYTTP
12 | 14 | RSKRLFPVRPMATAH

Molecular target: T4, Nbp2, Q12163
Test: SPOT array
Settings: median of control spots 357

Row | SPOT intensity | Binder
13 | 258 | KKIRLIFTYPSTVGR
14 | 0 | MKRSRPSRSIPYTTP
15 | 46 | RSKRLFPVRPMATAH

Molecular target: T5, Cdc25, P04821
Test: SPOT array
Settings: median of control spots 969

Row | SPOT intensity | Binder
16 | 163 | KKIRLIFTYPSTVGR
17 | 9 | MKRSRPSRSIPYTTP
18 | 22 | RSKRLFPVRPMATAH

Molecular target: T6, Boi1, P38041
Test: SPOT array
Settings: median of control spots 1162

Row | SPOT intensity | Binder
19 | 61 | KKIRLIFTYPSTVGR
20 | 3 | MKRSRPSRSIPYTTP
21 | 0 | RSKRLFPVRPMATAH

Molecular target: Rvs167, P39743
Sequence (P39743 419-482): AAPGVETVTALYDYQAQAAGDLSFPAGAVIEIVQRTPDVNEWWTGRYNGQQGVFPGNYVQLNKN
Test: SPOT array
Settings: median of control spots 2707

Row | SPOT intensity | Binder
22 | 0 | KKIRLIFTYPSTVGR
23 | 6 | MKRSRPSRSIPYTTP
24 | 9 | RSKRLFPVRPMATAH

Molecular target: T7, Boi2, P39969
Test: SPOT array
Settings: median of control spots 1161

Row | SPOT intensity | Binder
25 | 13 | KKIRLIFTYPSTVGR
26 | 2 | MKRSRPSRSIPYTTP
27 | 0 | RSKRLFPVRPMATAH

Molecular target: T8, Pex13, P80667
Test: SPOT array
Settings: median of control spots 1341

Row | SPOT intensity | Binder
28 | 12 | KKIRLIFTYPSTVGR
29 | 10 | MKRSRPSRSIPYTTP
30 | 11 | RSKRLFPVRPMATAH

Molecular target: T9, Bud14, P27637
Test: SPOT array
Settings: median of control spots 956

Row | SPOT intensity | Binder
31 | 9 | KKIRLIFTYPSTVGR
32 | 7 | MKRSRPSRSIPYTTP
33 | 6 | RSKRLFPVRPMATAH

Molecular target: T10, Hse1, P38753
Test: SPOT array
Settings: median of control spots 1727

Row | SPOT intensity | Binder
34 | 4 | KKIRLIFTYPSTVGR
35 | 14 | MKRSRPSRSIPYTTP
36 | 12 | RSKRLFPVRPMATAH

Molecular target: T11, Sla1-3, P32790
Test: SPOT array
Settings: median of control spots 5475

Row | SPOT intensity | Binder
37 | 8 | KKIRLIFTYPSTVGR
38 | 35 | MKRSRPSRSIPYTTP
39 | 36 | RSKRLFPVRPMATAH

Molecular target: T12, Myo5, Q04439
Test: SPOT array
Settings: median of control spots 471

Row | SPOT intensity | Binder
40 | 12 | KKIRLIFTYPSTVGR
41 | 2 | MKRSRPSRSIPYTTP
42 | 2 | RSKRLFPVRPMATAH

Molecular target: T13, Abp1, P15891
Test: SPOT array
Settings: median of control spots 935

Row | SPOT intensity | Binder
43 | 196 | KKIRLIFTYPSTVGR
44 | 32 | MKRSRPSRSIPYTTP
45 | 110 | RSKRLFPVRPMATAH

Molecular target: GST
Test: SPOT array
Settings: median of control spots 978

Row | SPOT intensity | Binder
46 | 0 | KKIRLIFTYPSTVGR
47 | 0 | MKRSRPSRSIPYTTP
48 | 0 | RSKRLFPVRPMATAH

Molecular target: Bem1-1, P29366
Sequence (P29366 55-141): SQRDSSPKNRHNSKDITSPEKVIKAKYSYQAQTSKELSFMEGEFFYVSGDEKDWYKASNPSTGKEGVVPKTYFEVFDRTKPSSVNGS
Test: SPOT array
Settings: median of control spots 4282

Row | SPOT intensity | Binder
49 | 0 | KKIRLIFTYPSTVGR
50 | 0 | MKRSRPSRSIPYTTP
51 | 0 | RSKRLFPVRPMATAH

Molecular target: T14, Bzz1-1, P38822
Test: SPOT array
Settings: median of control spots 4446

Row | SPOT intensity | Binder
52 | 2 | KKIRLIFTYPSTVGR
53 | 1 | MKRSRPSRSIPYTTP
54 | 1 | RSKRLFPVRPMATAH

Molecular target: T15, Lsb3, P43603
Test: SPOT array
Settings: median of control spots 406

Row | SPOT intensity | Binder
55 | 20 | KKIRLIFTYPSTVGR
56 | 1 | MKRSRPSRSIPYTTP
57 | 4 | RSKRLFPVRPMATAH

Molecular target: T16, Pin3, Q06449
Test: SPOT array
Settings: median of control spots 2171

Row | SPOT intensity | Binder
58 | 31 | KKIRLIFTYPSTVGR
59 | 34 | MKRSRPSRSIPYTTP
60 | 12 | RSKRLFPVRPMATAH

Molecular target: T17, Lsb1, P53281
Test: SPOT array
Settings: median of control spots 388

Row | SPOT intensity | Binder
61 | 50 | KKIRLIFTYPSTVGR
62 | 0 | MKRSRPSRSIPYTTP
63 | 5 | RSKRLFPVRPMATAH

Molecular target: Sho1, P40073
Sequence (P40073 287-367): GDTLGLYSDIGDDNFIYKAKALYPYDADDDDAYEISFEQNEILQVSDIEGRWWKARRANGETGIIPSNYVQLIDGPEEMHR
Test: SPOT array
Settings: median of control spots 1148

Row | SPOT intensity | Binder
64 | 253 | KKIRLIFTYPSTVGR
65 | 54 | MKRSRPSRSIPYTTP
66 | 90 | RSKRLFPVRPMATAH

Molecular target: T18, Lsb4, P32793
Test: SPOT array
Settings: median of control spots 397

Row | SPOT intensity | Binder
67 | 28 | KKIRLIFTYPSTVGR
68 | 6 | MKRSRPSRSIPYTTP
69 | 15 | RSKRLFPVRPMATAH

Molecular target: Myo3, P36006
Test: SPOT array
Settings: median of control spots 468

Row | SPOT intensity | Binder
70 | 41 | KKIRLIFTYPSTVGR
71 | 5 | MKRSRPSRSIPYTTP
72 | 2 | RSKRLFPVRPMATAH

Molecular target: T19, Bzz1-2, P38822
Test: SPOT array
Settings: median of control spots 4538

Row | SPOT intensity | Binder
73 | 2 | KKIRLIFTYPSTVGR
74 | 29 | MKRSRPSRSIPYTTP
75 | 13 | RSKRLFPVRPMATAH

Molecular target: T20, Hof1, Q05080
Test: SPOT array
Settings: median of control spots 4086

Row | SPOT intensity | Binder
76 | 0 | KKIRLIFTYPSTVGR
77 | 0 | MKRSRPSRSIPYTTP
78 | 7 | RSKRLFPVRPMATAH

Molecular target: T21, Bbc1, P47068
Test: SPOT array
Settings: median of control spots 796

Row | SPOT intensity | Binder
79 | 277 | KKIRLIFTYPSTVGR
80 | 25 | MKRSRPSRSIPYTTP
81 | 49 | RSKRLFPVRPMATAH
